Results reported in the supplement of paper PMC9112550, “Optimization of the antimicrobial peptide Bac7 by deep mutational scanning” (BMC Biology, 2022).

test system: Escherichia coli TOP10; experiment: shrunken log2 fold change of peptide-encoding DNA abundance (4.5 h post-induction vs induction); higher = less antimicrobial activity (less host growth inhibition); settings: time post-induction: 4.5 h; library: site-saturation at positions 5, 18, 19, 20
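Also: peptides expressed intracellularly from a pBAD plasmid library in pooled LB shake-flask culture, induced with 0.3% L-arabinose, DNA abundance read by NGS, three biological replicates, DESeq2 with apeglm shrinkage.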

Point of comparison: RRIRHRPPRLPRPRPRPSCVPRP, “shrunken log2 fold change” value -0.308. Against it:
- RRIRGRPPRLPRPRPRPRCLPRP — higher, 0.706
- RRIRYRPPRLPRPRPRPDYFPRP — within 0.2 log units, -0.22
- RRIRCRPPRLPRPRPRPPPEPRP — higher, 1.32
- RRIRWRPPRLPRPRPRPVEDPRP — higher, 0.00386
- RRIRRRPPRLPRPRPRPYPNPRP — higher, -0.0882
- RRIRDRPPRLPRPRPRPAQEPRP — higher, 0.185
- RRIRTRPPRLPRPRPRPGDSPRP — higher, 0.152
- RRIRERPPRLPRPRPRPFPCPRP — higher, -0.0816
- RRIRQRPPRLPRPRPRPPDGPRP — higher, 0.351
- RRIRSRPPRLPRPRPRPRSAPRP — higher, 0.392
- RRIRCRPPRLPRPRPRPEKRPRP — within 0.2 log units, -0.123
- RRIRGRPPRLPRPRPRPQCTPRP — higher, 0.085
- RRIRHRPPRLPRPRPRPRHWPRP — higher, -0.0269
- RRIRDRPPRLPRPRPRPFKGPRP — lower, -0.617
- RRIRLRPPRLPRPRPRPQHQPRP — within 0.2 log units, -0.261
- RRIRPRPPRLPRPRPRPCIWPRP — within 0.2 log units, -0.109
- RRIRPRPPRLPRPRPRPWCIPRP — lower, -0.519
- RRIRERPPRLPRPRPRPASTPRP — lower, -0.527
- RRIRYRPPRLPRPRPRPRAPPRP — higher, 0.271
- RRIRQRPPRLPRPRPRPLLAPRP — higher, 0.328
- RRIRTRPPRLPRPRPRPRAPPRP — higher, 0.511
- RRIRWRPPRLPRPRPRPMWKPRP — higher, -0.0109
- RRIRNRPPRLPRPRPRPYYPPRP — within 0.2 log units, -0.141
- RRIRFRPPRLPRPRPRPQYDPRP — lower, -0.75
- RRIRQRPPRLPRPRPRPKCSPRP — higher, -0.0276
- RRIRWRPPRLPRPRPRPSCAPRP — higher, 0.145
- RRIRYRPPRLPRPRPRPSYVPRP — lower, -1.29
- RRIRDRPPRLPRPRPRPPLMPRP — higher, 0.325
- RRIRKRPPRLPRPRPRPSIAPRP — higher, 0.00111
- RRIRLRPPRLPRPRPRPQGLPRP — higher, -0.0348
- RRIRCRPPRLPRPRPRPRSRPRP — higher, 0.299
- RRIRHRPPRLPRPRPRPAHEPRP — higher, 0.0538
- RRIRFRPPRLPRPRPRPKCWPRP — higher, 0.267
- RRIRFRPPRLPRPRPRPCFYPRP — within 0.2 log units, -0.394
- RRIRMRPPRLPRPRPRPTVAPRP — higher, 0.269
- RRIRPRPPRLPRPRPRPSPMPRP — within 0.2 log units, -0.259
- RRIRLRPPRLPRPRPRPMFHPRP — lower, -0.681
- RRIRERPPRLPRPRPRPSIQPRP — higher, -0.0558
- RRIRGRPPRLPRPRPRPWVAPRP — higher, -0.026
- RRIRWRPPRLPRPRPRPPCVPRP — higher, 0.301
- RRIRMRPPRLPRPRPRPRIGPRP — higher, 0.396
- RRIRGRPPRLPRPRPRPDAYPRP — higher, 0.829
- RRIRKRPPRLPRPRPRPARFPRP — higher, 0.396
- RRIRMRPPRLPRPRPRPGKIPRP — higher, 0.0308
- RRIRGRPPRLPRPRPRPPRNPRP — higher, 1.1
- RRIRYRPPRLPRPRPRPPPGPRP — higher, 0.909
- RRIRMRPPRLPRPRPRPMKSPRP — higher, 0.0897
- RRIRMRPPRLPRPRPRPDPWPRP — higher, 0.336
- RRIRFRPPRLPRPRPRPKAMPRP — higher, 0.23
- RRIRVRPPRLPRPRPRPILGPRP — higher, 0.0313
- RRIRNRPPRLPRPRPRPTKTPRP — higher, 0.0911
- RRIRQRPPRLPRPRPRPPRLPRP — higher, 0.287
- RRIRMRPPRLPRPRPRPKYKPRP — higher, -0.0345
- RRIRPRPPRLPRPRPRPFKQPRP — within 0.2 log units, -0.258
- RRIRTRPPRLPRPRPRPDIVPRP — higher, -0.0539
- RRIRGRPPRLPRPRPRPDYRPRP — higher, 0.127
- RRIRVRPPRLPRPRPRPNTHPRP — within 0.2 log units, -0.457
- RRIRCRPPRLPRPRPRPQQCPRP — within 0.2 log units, -0.219
- RRIRERPPRLPRPRPRPKARPRP — within 0.2 log units, -0.276
- RRIRMRPPRLPRPRPRPNSAPRP — higher, 0.0568
- RRIRWRPPRLPRPRPRPNACPRP — higher, 0.478
- RRIRQRPPRLPRPRPRPWCPPRP — within 0.2 log units, -0.261
- RRIRFRPPRLPRPRPRPSGRPRP — higher, 0.0486
- RRIRPRPPRLPRPRPRPPRLPRP — higher, 0.406
- RRIRNRPPRLPRPRPRPEFDPRP — higher, 0.0248
- RRIRCRPPRLPRPRPRPVTTPRP — higher, -0.0492
- RRIRTRPPRLPRPRPRPELAPRP — higher, 0.188
- RRIRVRPPRLPRPRPRPWDTPRP — higher, 0.00866
- RRIRSRPPRLPRPRPRPPCRPRP — higher, 0.426
- RRIRNRPPRLPRPRPRPFGAPRP — higher, 0.00377
- RRIRRRPPRLPRPRPRPSMEPRP — higher, 0.0198
- RRIRDRPPRLPRPRPRPTTYPRP — higher, -0.0974
- RRIRTRPPRLPRPRPRPYRQPRP — higher, -0.00615
- RRIRYRPPRLPRPRPRPTVNPRP — within 0.2 log units, -0.45
- RRIRERPPRLPRPRPRPQWWPRP — higher, 0.273
- RRIRPRPPRLPRPRPRPVCGPRP — higher, 0.208
- RRIRWRPPRLPRPRPRPCELPRP — higher, 0.0544
- RRIRKRPPRLPRPRPRPNCIPRP — higher, -0.0156
- RRIRTRPPRLPRPRPRPHNAPRP — within 0.2 log units, -0.391
- RRIRDRPPRLPRPRPRPQAFPRP — within 0.2 log units, -0.184
- RRIRCRPPRLPRPRPRPKYVPRP — within 0.2 log units, -0.394
- RRIRTRPPRLPRPRPRPMREPRP — higher, 0.864
- RRIRSRPPRLPRPRPRPRHWPRP — higher, 0.618
- RRIRPRPPRLPRPRPRPSIYPRP — lower, -0.584
- RRIRERPPRLPRPRPRPPFWPRP — higher, -0.0269
- RRIRFRPPRLPRPRPRPKYMPRP — lower, -0.836
- RRIRCRPPRLPRPRPRPQHPPRP — within 0.2 log units, -0.132
- RRIRLRPPRLPRPRPRPYSCPRP — within 0.2 log units, -0.458
- RRIRPRPPRLPRPRPRPKPSPRP — higher, 0.699
- RRIRARPPRLPRPRPRPMSLPRP — within 0.2 log units, -0.229
- RRIRCRPPRLPRPRPRPPYPPRP — within 0.2 log units, -0.193
- RRIRLRPPRLPRPRPRPEASPRP — higher, 0.133
- RRIRWRPPRLPRPRPRPFILPRP — within 0.2 log units, -0.476
- RRIRTRPPRLPRPRPRPQYRPRP — higher, -0.0697
- RRIRPRPPRLPRPRPRPIRTPRP — higher, 0.289
- RRIRKRPPRLPRPRPRPVLSPRP — higher, 0.3
- RRIRWRPPRLPRPRPRPRAQPRP — higher, 0.56
- RRIRERPPRLPRPRPRPQVGPRP — higher, -0.0112
- RRIRCRPPRLPRPRPRPQIKPRP — lower, -0.762
- RRIRQRPPRLPRPRPRPRANPRP — higher, 0.367
- RRIRQRPPRLPRPRPRPYCSPRP — within 0.2 log units, -0.132
- RRIRLRPPRLPRPRPRPYINPRP — lower, -0.584
- RRIRSRPPRLPRPRPRPWYVPRP — within 0.2 log units, -0.36
- RRIRSRPPRLPRPRPRPAHCPRP — higher, 0.0412
- RRIRVRPPRLPRPRPRPHMAPRP — within 0.2 log units, -0.339
- RRIRMRPPRLPRPRPRPYKLPRP — higher, 0.00411
- RRIRQRPPRLPRPRPRPSPFPRP — higher, 0.0122
- RRIRQRPPRLPRPRPRPLTSPRP — within 0.2 log units, -0.254
- RRIRLRPPRLPRPRPRPWDDPRP — within 0.2 log units, -0.208
- RRIRHRPPRLPRPRPRPCQVPRP — within 0.2 log units, -0.345
- RRIRERPPRLPRPRPRPMLHPRP — lower, -0.542
- RRIRSRPPRLPRPRPRPRHVPRP — higher, -0.0732
- RRIRYRPPRLPRPRPRPGAPPRP — higher, 0.312
- RRIRERPPRLPRPRPRPQGFPRP — within 0.2 log units, -0.144
- RRIRVRPPRLPRPRPRPKFNPRP — within 0.2 log units, -0.42
- RRIRPRPPRLPRPRPRPIDLPRP — higher, -0.0858
- RRIRWRPPRLPRPRPRPRHVPRP — higher, -0.0116
- RRIRWRPPRLPRPRPRPPTVPRP — higher, 0.144
- RRIRARPPRLPRPRPRPLARPRP — higher, 0.81
- RRIRKRPPRLPRPRPRPWMCPRP — within 0.2 log units, -0.316
- RRIRDRPPRLPRPRPRPLQVPRP — higher, 0.0133
- RRIRGRPPRLPRPRPRPFCWPRP — higher, 0.551
- RRIRERPPRLPRPRPRPKGCPRP — higher, -0.0587
- RRIRMRPPRLPRPRPRPGGCPRP — higher, 0.888
- RRIRGRPPRLPRPRPRPVVLPRP — higher, 0.4
- RRIRKRPPRLPRPRPRPCKAPRP — higher, 0.0525
- RRIRYRPPRLPRPRPRPGLLPRP — higher, 0.0178
- RRIRVRPPRLPRPRPRPAYVPRP — within 0.2 log units, -0.17
- RRIRERPPRLPRPRPRPGGCPRP — higher, 1.44
- RRIRIRPPRLPRPRPRPSHNPRP — lower, -1.06
- RRIRNRPPRLPRPRPRPEHGPRP — higher, -0.0132
- RRIRQRPPRLPRPRPRPPFTPRP — higher, -0.0512
- RRIRHRPPRLPRPRPRPPWDPRP — higher, 0.131
- RRIRERPPRLPRPRPRPWYCPRP — higher, 0.00607
- RRIRSRPPRLPRPRPRPLWLPRP — higher, -0.0472
- RRIRWRPPRLPRPRPRPINLPRP — lower, -0.748
- RRIRNRPPRLPRPRPRPGADPRP — higher, 0.0958
- RRIRSRPPRLPRPRPRPISNPRP — within 0.2 log units, -0.338
- RRIRARPPRLPRPRPRPKIYPRP — within 0.2 log units, -0.161
- RRIRGRPPRLPRPRPRPHYPPRP — within 0.2 log units, -0.222
- RRIRARPPRLPRPRPRPITGPRP — higher, -0.00407
- RRIRKRPPRLPRPRPRPIATPRP — higher, -0.0616
- RRIRSRPPRLPRPRPRPYTDPRP — lower, -1.11
- RRIRPRPPRLPRPRPRPGWLPRP — higher, 0.468
- RRIRSRPPRLPRPRPRPPAPPRP — higher, 0.906
- RRIRPRPPRLPRPRPRPGECPRP — higher, 0.739
- RRIRQRPPRLPRPRPRPCMMPRP — within 0.2 log units, -0.498
- RRIRRRPPRLPRPRPRPNFHPRP — higher, 0.75
- RRIRERPPRLPRPRPRPESCPRP — higher, -0.0125
